From publication PMC6697681, “The predominance of nucleotidyl activation in bacterial phosphonate biosynthesis” (Nature Communications, 2019)

Assays:
[1] = system: C[N+](C)(C)CCOP(=O)([O-])O; test: purified protein; conditions: saturating CTP (4 mM), 7 mM MgCl2, room temperature; fit with substrate inhibition
NCCP(=O)(O)O = test: purified protein; conditions: saturating CTP (4 mM), 7 mM MgCl2, room temperature

## Ari-PntC (Ari1348) (Lancefieldella rimae ATCC 49626)
[1]
  Km: 1000 ± 800 µM
  kcat: 0.7 ± 0.3 s⁻¹
  kcat/Km: 720 M⁻¹ s⁻¹
NCCP(=O)(O)O
  Km: 12 ± 1 µM

## Spn-LicC (Streptococcus pneumoniae R6)
[1]
  Km: 2.36 ± 0.65 µM
  kcat: 1.06 ± 0.04 s⁻¹
NCCP(=O)(O)O
  Km: 318 ± 129 µM
  kcat: 0.723 ± 0.054 s⁻¹
